From US20250034224A1
Blank lines part the entries; values can stand above or below the substance they belong to.

Assays:
Test in all cases: cell-based or functional assay
[1] = molecular target: IL2 receptors (on lymphocyte populations of human PBMCs)
[2] = molecular target: OT-I TCR (Ovalbumin(257-264)-specific) on CD8+ T cells of an OT-I TCR transgenic mouse (mouse); conditions: scale: orders of magnitude higher potency than T5-IL2M6
[3] = molecular target: Chimeric antigen receptor containing a VL-VH scFv (VL and VH of antibody 17363N) recognizing T3 (HLA)

potency in STAT5 phosphorylation on multiple lymphocyte populations, against IL2M0 (fold less potent than IL2M0) [1]: 100
Substance: IL2M2: Human IL2-(GGGGS)4-human IL-2Ra-GGGGS-Fc (Fc fusion)

intracellular STAT5 phosphorylation in gated CD8+ T cells of OT-I splenocytes [2]: 2
Substance: T4-IL2M6: OVA(257-264)-GCGGS-(GGGGS)2-mB2m-(GGGGS)4-mH2Kb-(GGGGS)4-Fc-(GGGGS)3-hIL2(H16A, F42A) (peptide-MHC)

Substance: T3-IL2M6: HPV16E7(11-19)-GCGGS-(GGGGS)2-hB2m-(GGGGS)4-hHLA.A2-(GGGGS)4-Fc-(GGGGS)3-hIL2(H16A, F42A) (peptide-MHC)
frequency of viable CAR-T (eGFPPos) cells at day 3 of expansion (start 38%) [3]: 36%

potency in STAT5 phosphorylation on multiple lymphocyte populations, against IL2M4 (fold less potent than IL2M4) [1]: > 100
Substance: IL2M5: Fc-GGGGS-human IL2 (N88D, C125A) fusion (Fc fusion)
